Experimental data reported in patent US20110207917A1 (PATRYS, published 2011).

Biological target: T1, CD55 antigen (coated on ELISA plate) (UniProt P08174 35-353, limits assumed)
T1 sequence (looked up): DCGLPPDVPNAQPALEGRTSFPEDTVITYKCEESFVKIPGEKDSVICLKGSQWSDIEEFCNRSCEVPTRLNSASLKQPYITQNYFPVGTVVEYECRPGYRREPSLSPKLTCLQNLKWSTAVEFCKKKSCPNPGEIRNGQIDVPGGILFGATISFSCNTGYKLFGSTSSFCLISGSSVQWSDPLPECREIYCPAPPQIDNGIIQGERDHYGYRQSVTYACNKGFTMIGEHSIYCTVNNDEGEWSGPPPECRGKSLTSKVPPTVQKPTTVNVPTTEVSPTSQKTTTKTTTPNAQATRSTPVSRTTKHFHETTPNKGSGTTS
Test: ELISA on coated CD55 antigen (0.5 µg/well)
Procedure: In brief, CD55 antigen (0.5 μg/well) was coated in a volume of 50 μl/well. The primary antibody was incubated at 12 μg/ml (0.6 μg/well). Buffer was pH6.5 and for the dilution buffer used was High salt pH8.0.

B1: SAM-6 antibody (human IgM produced by hybridoma deposited as DSM ACC2903) (antibody, V domains shown)
VH: GGGVVQPGRSLRLSCAASGFTFSSYAMHWVRQAPGKGLEWVAVISYDGSNKYYADSVKGRFTISRDNSKNTLYLQMNSLRAEDTAVYYCARDRLAVAGRPFDYWGQGTLVTVSS
VL: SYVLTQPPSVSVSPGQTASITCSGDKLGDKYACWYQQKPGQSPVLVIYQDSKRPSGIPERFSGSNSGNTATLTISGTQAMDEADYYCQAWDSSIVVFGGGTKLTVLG
notes: Human IgM, lambda light chain, purified from hybridoma supernatant; CDR-H3 was not observed; also called SAM-6 HAB; SAM-6 HAB IgM
binding result: no binding (tested: 12 µg/ml)
